Assay results from EP4813394A2 (Albert-Ludwigs-Universität Freiburg, dated 2026).

Biological target: T1, TRMT112 (KMT9beta) (Homo sapiens, UniProt Q9UI30 1-125)
T1 construct: TRMT112 is untagged when co-expressed with His-C21orf127 and His-tagged when expressed alone (His-TRMT112); also called His-TRMT112
T1 sequence: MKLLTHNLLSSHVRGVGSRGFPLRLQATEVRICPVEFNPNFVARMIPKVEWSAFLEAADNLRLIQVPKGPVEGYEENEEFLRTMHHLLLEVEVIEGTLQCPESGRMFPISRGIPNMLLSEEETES
Assay: gel filtration chromatography (Superose 6 10/300 GL)

B1: C21orf127(N122A) (enzyme)
chain: MAGENFATPFHGHVGRGAFSDVYEPAEDTFLLLDALEAAAAELAGVEICLEVGSGSGVVSAFLASMIGPQALYMCTDINPEAAACTLETARCNKVHIQPVITDLVKGLLPRLTEKVDLLVFAPPYVVTPPQEVGSHGIEAAWAGGRNGREVMDRFFPLVPDLLSPRGLFYLVTIKENNPEEILKIMKTKGLQGTTALSRQAGQETLSVLKFTKS
notes: Co-expressed with TRMT112 as His-C21orf127(N122A)/TRMT112; also called KMT9alpha(N122A); His-C21orf127(N122A); not shown: N-terminal His tag from pDEST17 or pET-Duet1
binding result: binds
